Laboratory results published in patent US20190309056A1 (VIB VZW, published 2019).
Changes are numbered by the printed parent chain.

B1: anti-MIF ISVD D4 (VHH)
VHH: KVQLVESGGGLVQDGGSLRLSCAASGRTASIQVMGWFRQAPGKEREFVGNIGWNYGLTLYPDSVKGRFTISRDNAKNTVYLQMNNLKPEDTAVYYCAARIGTTTYDYWGQGTQVTVSS
notes: Family III; Expressed from pAX100, purified by IMAC
B2: anti-MIF ISVD A2 (VHH)
VHH: B1 VHH with K1E, P61A, S63P, T103I
notes: as for B1
B3: anti-MIF ISVD D2 (VHH)
VHH: B1 VHH with K1E, Q32H, V33T, K43Q, E46G, P61A, T104P
notes: as for B1
B4: anti-MIF ISVD F10 (VHH)
VHH: B1 VHH with K1E, D73G, T78A
notes: as for B1
B5: anti-MIF ISVD B5 (VHH)
VHH: EVQLVESGGGLVQAGGSLRLSCAASGRSFSNYIMGWFRQAPGKEREFVANISWNYGTTFYADSVKGRFTISGDSAKNTVYLQMTSLKPEDTAVYYCAARPVRGGRNFDYWGQGTQVTVSS
notes: Family I. Expressed from pAX100, purified by IMAC
B6: anti-MIF ISVD C10 (VHH)
VHH: EVQLVESGGGLVQAGGSLRLSCAASGRTSSIVAIGWFRQAPGKEREFVSNIGWKFGSTVYVDSVKGRFTISKDNAKNTVYLQMNSLKPEDTAVYRCAARSDGRVYDSWGQGTQVTVSS
notes: Family II; Expressed from pAX100, purified by IMAC
B7: anti-MIF ISVD H5 (VHH)
VHH: EVQLVESGGGLVQPGGSLRLSCVASGFTFRTYAMSWVRQAPGKGSEWVSTINNGGGVTGYADSVEGRFTISRDNAKNTLYLQMNSLKPEDTAVYYCAKGTSRGQGTQVTVSS
notes: Family IV; Expressed from pAX100, purified by IMAC
B8: anti-MIF ISVD E5 (VHH)
VHH: EVQLVESGGGLVHAGGSLRLSCAASGRTFSSYFMGWFRQAPGKAREFVANINFSGGTTVYASSVKGRFTISRDNSKNTVYLQMNSVKPEDTAVYYCVARGLTQDYDYWGQGTQVTVSS
notes: Family V. Expressed from pAX100, purified by IMAC; also called Nb E5
B9: anti-MIF ISVD H9 (VHH)
VHH: B8 VHH with F29S, S31T, M83L, V97S, T102N, D104E, Y107F
notes: Family V. Expressed from pAX100, purified by IMAC
B10: anti-MIF ISVD D12 (VHH)
VHH: EVQLVESGGGLVQAGGSLRLSCAASGRTISSYIVGWFRQAPGKEREFVANIGWSGSMPLYADSVKGRFTIFRDNAKNTVYLEMNKLKPEDTAVYYCAARGAGQLTNDYWGQGTQVTVSS
notes: Family VI; Expressed from pAX100, purified by IMAC
B11: anti-MIF ISVD E10 (VHH)
VHH: EVQLVESGGGSVQAGDSLRLSCAASGRTLSNSIMGWFRQAPGKEREFVANINWSGTSRLYADSVKGRFTISRDNTKSTVYLQMNSLKPEDTAIYYCAARSSTMSATDYWGQGTQVTVSS
notes: Family VII; Monovalent llama VHH expressed in E. coli from pAX100 and purified by IMAC (His-Trap) and gel filtration; also called Nb E10; monovalent E10

Legend:
[1] = target: T1, recombinant human Macrophage Migration Inhibitory Factor (MIF 2-115) (human, UniProt P14174 2-115); assay: SPR (BIAcore T200), rhMIF immobilised on CM5 chip, 1:1 Langmuir model
T1 construct: rhMIF bought from R&D Systems; The background describes MIF as a homotrimer but also as monomer, dimer or higher oligomers; In the cell assays (THP-1, human PBMC) the MIF is the cells' own; also called rhMIF; human MIF
T1 sequence (P14174 2-115): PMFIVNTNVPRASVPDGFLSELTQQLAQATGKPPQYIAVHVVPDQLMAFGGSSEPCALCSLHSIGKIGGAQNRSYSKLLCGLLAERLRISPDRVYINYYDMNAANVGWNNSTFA
Description: Surface plasmon resonance (SPR) experiments were performed on a BIAcore T200 system (GE Healthcare). Recombinant mouse MIF (rmMIF) or rhMIF (R&D systems) was immobilized on a CM5 chip (GE Healthcare). Briefly, the carboxylated dextran matrix was activated by injection of 0.2 M N-ethyl-N′-(3-[…]) carbodiimide (EDC) and 0.05 M N-hydroxysuccinimide (NHS) at a flow rate of 5 μl/min for 7 min. A rmMIF solution of 5 μg/ml prepared in coupling buffer (50 mM sodium acetate pH 4.0) was subsequently injected until 200 R.U. was immobilised. Next, the surface immobilisation was blocked by injection of 1 M ethanolamine hydrochloride for 7 min. As a reference, the surface in another flow cell was used and treated only with EDC, NHS, and ethanolamine. Data for the rmMIF-ISVD interaction were collected in the format of a kinetic titration (27). […] Analyte injections were performed with association phases of 180 s and a dissociation phase of 600 s. This was followed by 5 pulses of 15 μl regeneration buffer (HBS+100 mM NaOH). Prior to data analysis, reference and zero concentration data were subtracted from the sensorgrams. The data were analyzed with a 1:1 Langmuir binding model (27). Data for the rhMIF-ISVD interaction were collected as described elsewhere (28) and analyzed with a 1:1 Langmuir binding model.

[2] = target: T1, recombinant human Macrophage Migration …; assay: SPR (summary in the discussion)

Binder	Kd [1] [nM]	binding result [2]
B1	35	
B2	2.96	
B3	16.5	
B4		binds
B5	37.8	
B6	41.2	
B7	27.5	
B8	9.41	
B9	80.3	
B10	166	
B11	64.5	
